Test results: the nanobody polyreactivity screen of Harvey et al. (2022)

Assay: yeast display, Sf9 membrane polyspecificity reagent, FACS + sequencing; frameworks hold sequencing errors
Outline: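 After 36–48 hours of galactose induction, yeast (Saccharomyces cerevisiae BJ5465) displaying a synthetic nanobody library were stained at 4 °C for 1 hour with 10% biotinylated, detergent-solubilized Sf9 membrane reagent. Streptavidin microbeads enriched the stained cells before FACS sorting into low and high (top ~1%) gates on anti-HA and streptavidin fluorescence. Each clone's polyreactivity label reflects its gate of origin.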

| Sequence | polyreactivity (PSR sort gate) |
| --- | --- |
| QVQLVESGGGLVQAGGSLRLSCAASGNIFSRYAMGWYRQAPGKERELVASISRGGRTNYADSVKGRFTISRDNAKNTVYLQMNSLKPEDTAVYYCAKGGKGYWHPTGPYPFNYWGQGTQVTVSS | high polyreactivity |
| QVQLVESGGGLVQAGGSLRLSCAASGNIFSSNAMGWYRQAPGKERELDAAITRSGGSTYYADSVKGRFTISRDNAKNTVYLQMNSLKPEDTAVYYCAARHYPRNSWGYDYWGQGTQVTVSS | high polyreactivity |
| QVQLVESGGGLVQAGGSLRLSCAASGNIFSYNAMAWYRQAPGKERELVAAITTSSGRTYYADSVKGRFTISRDIAKNTVYLQMNSLKPEVTAVYYCNAVQRYQMGYWGQGTQVTVSS | high polyreactivity |
| QVQLVESGGGLVQAGGSLRLSCAASGNIFSYNAMGWYRQAPGKEREFVAAITFSSDRTYYADSVKGRFTISRDNAKNTVYLQMNSLKPEDTAVYYCAADTRYINYKRYYYWGQGTQVTVSS | high polyreactivity |
| QVQLVESGGGLVQAGGSLRLSCAASGNIFSYYAMGWYRQAPGKERELVAAIYTGGSTYYADSVKGRFTISRDNAKNTVYLQMNSLKPEDTEVYYCAASGLNLRQDYDYWGQGTQVTVSS | low polyreactivity |
| QVQLVESGGGLVQAGGSLRLSCAASGNIFVEYAMGWYRPAPGKERELVAAITNSGGRTHYSDSVKGRFTISRDNAKNTVYLQMNSLKPEDSEVYFCAAPTKYRSRRYYWGQGTQVTVSS | high polyreactivity |
| QVQLVESGGGLVQAGGSLRLSCAASGNIFVEYAMGWYRQAPGKERELVAAITNSGGRTHYADSVKGRFTISRDNAKNTVYLQMNSLKPEDTAVYYCAAPTKYRSRRYYWGQGTQVTVSS | high polyreactivity |
| QVQLVESGGGLVQAGGSLRLSCAASGNIFVFYVMGWYRQAPGKERELVASISSTGNTYYADSVKGRFTISRDNAKNTVYLQMNSLKPEDTAVYYCAADSHQNVSGWLRWPRMDYWGQGTQVTVSS | low polyreactivity |
| QVQLVESGGGLVQAGGSLRLSCAASGNIFVINAMGWYRQAPGKERELVAAINWTGGNTYYADSVKGRFTISRDNAKNTFYLQMNSLKPEDTAVYYSAADRRWFVWGLGYWGQGTQVTVSS | low polyreactivity |
| QVQLVESGGGLVQAGGSLRLSCAASGNIFVRYTMGWYRQAPGTERELVARITSGGSTYYADSVKGRFTISRDNAKNTVYLQMNSLKPEDTAVYYCAAAIGTRLYSYYYWGQGTQVTVSS | high polyreactivity |
| QVQLVESGGGLVQAGGSLRLSCAASGNIFVTYAMGWYRQAPGKERELVAGITSSDDSTYYADSVKGRFTISRDNAKNTVYLQMNSLKPEDPAVYYCATYYWEVGIGQYYYWGQGTQVTVSS | low polyreactivity |
| QVQLVESGGGLVQAGGSLRLSCAASGNIFVVNAMGWYRQAPGKERELVAGITTNGGRTFYADSVKGRFTISRDNAKNTVYLQINSLKPEDTAVYYWNARHGRHRRTRFAKYDYWGQGTQVTVSS | high polyreactivity |
| QVQLVESGGGLVQAGGSLRLSCAASGNIFYDYGMGWYRQAPGKERELVAGISSVDHTYYADSVKGRFTISRDNAKNTVYLQMNSLKPEDTAVYYCARDTELYVRWLDYWGQGTQVTVSS | low polyreactivity |
| QVQLVESGGGLVQAGGSLRLSCAASGNIFYGYAMGWYRQAPGKERELVAAISGSSTYYADSVKGRFTISRDNAKNTVYLEMNSLKPEDTAVYYCAVPQYLYLQAGHGYRYYYWGQGTQVTVSS | high polyreactivity |
| QVQLVESGGGLVQAGGSLRLSCAASGNIFYLYAMGWYRQAPGKEREFSTSYADSVKGRFTISRDNAKNTVYLQMNSLKPEDTAVYYCAAYKSRGPYYYLFDYWGQGTQVTVSS | low polyreactivity |
| QVQLVESGGGLVQAGGSLRLSCAASGNIFYPYAMGWYRQAPGKERELVAAISWSDGSTYYADSVKGRFTISRDNAKNTVYLQMNILKPEDTAVYYCAAEAYISNYYGRDYWGQGTQVTVSS | high polyreactivity |

| Sequence | polyreactivity (PSR sort gate) |
| --- | --- |
| QVQLVESGGGLVQAGGSLRLSCAASGNIFYRNAIGWYRQAPGKERELVAAIRGGGSTNYADSVKGRFTISRDNAKNTVYLQMNSLKPEDTAVYYCNTVRSPPGHDYWGQGTQVTVSS | low polyreactivity |
| QVQLVESGGGLVQAGGSLRLSCAASGNIFYTYAMGWYRPAPGKERELVAAITWSGGSTYYADSVKGRFTISRDKAKKTVYLQMNSLKPEDTAVYYCAADSLGYYYSGGYYSIYDHWGQGTQVTVSS | high polyreactivity |
| QVQLVESGGGLVQAGGSLRLSCAASGNIFYTYAMGWYRQAPGNERELVAGISSDASTTYADSVKGRFTISRDNAKNTVYLPMKSLNPEDTAVYYCPADITGIVWYVYYYWGQGTQVTVSS | low polyreactivity |
| QVQLVESGGGLVQAGGSLRLSCAASGNIFYVYVMGWYRQAPGKERELVASITSGASTYYADSVKGRFTISRDNAKNTVYLQMNSLKPEDTAVYYCAAEALGGAGDYSTLYIYDYWGQGTQVTVSS | low polyreactivity |
| QVQLVESGGGLVQAGGSLRLSCAASGNIFYWYAMGWYRQAPGKEREFVAAITRSGGSTSYADSVKGRFTISRDNAKNTVYLQMNSLKPEDTAVYYCNATHWVHFQEFYSWGPGTQVTVSS | low polyreactivity |
| QVQLVESGGGLVQAGGSLRLSCAASGNIFYYNAMGWYRQAPGKETELVADITWSGGSTYYADSVKGRFTISRDNAKNTVDLQMNSLKPEDTAVYYCADETFGYHRGRIADDYEYWGQGTQVTVSS | low polyreactivity |
| QVQLVESGGGLVQAGGSLRLSCAASGNIISNNAMGWYRQAPGKERELVAAIDWSGGRTYYADSVKGRFTISRDNAKNNVYIQMNSLKPEDTAVYYCAAEIPFTYRGVFYEYYYWGQGTQVTLSS | high polyreactivity |
| QVQLVESGGGLVQAGGSLRLSCAASGNILATNCMGWYRQAPGMERELVAAITFSGDTTYYADSVKGRFTISRDNAKNTVYLQMNSLKPEDTAVYYCNAVSFIVNGGYDGDYWGQGTQVTVSS | low polyreactivity |
| QVQLVESGGGLVQAGGSLRLSCAASGNILRGYAMGWYRQAPGKERELVAAIDTRGGRTNYADSVKGRFTISRDNAKNTVYLQMNSLKPEDTAVYYCNALGYYSFGHEYWGQGTQVTVSS | low polyreactivity |
| QVQLVESGGGLVQAGGSLRLSCAASGNILSPYTMGWYRQAPGKERELVAGISRSGGTTYYADSVKGRFTLSRDNAKTTVYLQINSLKTEDTAVYYCASGLIYGYSGYDSWGQGTQVTVSS | low polyreactivity |
| QVQLVESGGGLVQAGGSLRLSCAASGNILSVYTMGWYRQAPGKERELVATITYSGDRTYADSVKGRFTISRDNAKKTVYLQMNSLKPEDTAVYYCNAVYYREGMDYWGQGTQVTVSS | low polyreactivity |
| QVQLVESGGGLVQAGGSLRLSCAASGNILTTYAMGWYRQAPGKERELVAAIRWSDGSTYYADSVKGRFTISRDNAKNTVYLQMNSLKPEDTAVYYCAADYHYPTWQGGYHYGYWGQGTQVTVSS | high polyreactivity |
| QVQLVESGGGLVQAGGSLRLSCAASGNILVENAMGWYRQAPGKERELVAVSTSGTSTYADSVKGRFTISRDNAKNSVSFQMNSLKPEDTAVYYCNARRINTLYDSWGQGTLVTVSS | low polyreactivity |
| QVQLVESGGGLVQAGGSLRLSCAASGNIYDVYAMGWYRQAPGKERELVADIDRGGTTYADSVKGRFTISRDNAKNTVYLQMNSLKPEATAVYYCAADYVQGFGFYYQWHSDYWGQGTQVTVSS | low polyreactivity |
| QVQLVESGGGLVQAGGSLRLSCAASGNNFGVYAMGWYRQAPGTERELVAAIRYSTVSTYYADSVKGRFTISRDNAKNTVYLQMNSLKPEDTSVYYCAAQRRRYLPGHYYYWGQGTQVTVSS | high polyreactivity |
| QVQLVESGGGLVQAGGSLRLSCAASGNNFRYNAMVWYRQAPGKERELVAAISSVGTTNYADSVKGRFTISRDNAKNTVYLQMNSLKPEDTAVYYCAAVDYQGGYWYDYWGQGTQVTVSS | low polyreactivity |
